Source: IntAct's records for PubMed 24899623

B1: Leukocyte immunoglobulin-like receptor subfamily B member 2 (Homo sapiens), Q8N423 (parent)
chain: MTPIVTVLICLGLSLGPRTRVQTGTIPKPTLWAEPDSVITQGSPVTLSCQGSLEAQEYRLYREKKSASWITRIRPELVKNGQFHIPSITWEHTGRYGCQYYSRARWSELSDPLVLVMTGAYPKPTLSAQPSPVVTSGGRVTLQCESQVAFGGFILCKEGEDEHPQCLNSQPHARGSSRAIFSVGPVSPNRRWSHRCYGYDLNSPYVWSSPSDLLELLVPGVSKKPSLSVQPGPVMAPGESLTLQCVSDVGYDRFVLYKEGERDLRQLPGRQPQAGLSQANFTLGPVSRSYGGQYRCYGAHNLSSECSAPSDPLDILITGQIRGTPFISVQPGPTVASGENVTLLCQSWRQFHTFLLTKAGAADAPLRLRSIHEYPKYQAEFPMSPVTSAHAGTYRCYGSLNSDPYLLSHPSEPLELVVSGPSMGSSPPPTGPISTPGPEDQPLTPTGSDPQSGLGRHLGVVIGILVAVVLLLLLLLLLFLILRHRRQGKHWTSTQRKADFQHPAGAVGPEPTDRGLQWRSSPAADAQEENLYAAVKDTQPEDGVEMDTRAAASEAPQDVTYAQLHSLTLRRKATEPPPSQEREPPAEPSIYATLAIH
partner: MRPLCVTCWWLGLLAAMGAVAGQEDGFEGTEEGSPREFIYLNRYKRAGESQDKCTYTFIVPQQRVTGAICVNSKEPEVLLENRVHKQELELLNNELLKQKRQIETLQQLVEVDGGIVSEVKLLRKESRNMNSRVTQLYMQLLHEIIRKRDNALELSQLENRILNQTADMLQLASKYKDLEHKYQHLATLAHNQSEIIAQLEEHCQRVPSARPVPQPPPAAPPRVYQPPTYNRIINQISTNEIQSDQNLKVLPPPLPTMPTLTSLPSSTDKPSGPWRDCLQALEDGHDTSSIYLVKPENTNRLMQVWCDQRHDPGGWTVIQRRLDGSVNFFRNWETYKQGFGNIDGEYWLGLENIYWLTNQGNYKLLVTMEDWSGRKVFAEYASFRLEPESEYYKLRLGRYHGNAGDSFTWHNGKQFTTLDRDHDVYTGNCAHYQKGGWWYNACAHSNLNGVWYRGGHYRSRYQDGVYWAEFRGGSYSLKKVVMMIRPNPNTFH
B2: Leukocyte immunoglobulin-like receptor subfamily B member 2 (Homo sapiens), Q8N423 (parent)
chain: B1 chain

Variants of: B1
Conditions: with angl2_human ANGPTL2, Q9UKU9

Row | Variant | effect of a mutation on the interaction
1 | T393E | with no effect
2 | W90A;D200A;N202A;Y205A | with no effect
3 | R95E | decreasing interaction strength
4 | H92S;T93A;G94D;R95E;Y96A;G97R;Q99R;Y100G | decreasing interaction strength
5 | Y100G | decreasing interaction strength
6 | G97R | with no effect
7 | R59A;Y61A | decreasing interaction strength
8 | Y394A | decreasing interaction strength
9 | Q99R | with no effect
10 | Y96A;T393E | decreasing interaction strength
11 | G94D | decreasing interaction strength
12 | Y96A | decreasing interaction strength

Next, values leading:

Row | effect of a mutation on the interaction | Variant
13 | decreasing interaction strength | R59A;Y61A;W90A;D200A;N202A;Y205A
14 | increasing interaction strength | T93A
15 | with no effect | H92S
16 | with no effect | G392D
17 | disrupting interaction strength | Y96A;G392D
18 | disrupting interaction strength | Y96A;Y394A

Variants of: B2
Conditions: with angl5_human ANGPTL5, Q86XS5
angl5_human ANGPTL5, Q86XS5, sequence (Q86XS5 whole entry): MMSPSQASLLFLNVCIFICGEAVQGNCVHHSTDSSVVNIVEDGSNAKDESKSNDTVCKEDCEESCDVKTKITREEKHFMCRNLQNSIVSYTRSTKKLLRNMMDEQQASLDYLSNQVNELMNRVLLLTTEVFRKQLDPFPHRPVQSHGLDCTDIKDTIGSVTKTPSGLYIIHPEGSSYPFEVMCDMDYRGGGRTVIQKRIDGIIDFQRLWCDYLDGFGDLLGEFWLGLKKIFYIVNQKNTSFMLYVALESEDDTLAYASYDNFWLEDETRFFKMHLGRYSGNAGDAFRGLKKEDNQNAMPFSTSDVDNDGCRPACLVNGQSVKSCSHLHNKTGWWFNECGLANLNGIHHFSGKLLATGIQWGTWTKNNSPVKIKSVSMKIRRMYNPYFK

Row | Variant | effect of a mutation on the interaction
19 | G97R | with no effect
20 | Y394A | decreasing interaction strength
21 | Y96A;G392D | disrupting interaction strength
22 | T393E | decreasing interaction strength
23 | T93A | decreasing interaction strength
24 | H92S | decreasing interaction strength
25 | R59A;Y61A;W90A;D200A;N202A;Y205A | decreasing interaction strength
26 | W90A;D200A;N202A;Y205A | decreasing interaction strength

Next, values leading:

Row | effect of a mutation on the interaction | Variant
27 | decreasing interaction strength | Y100G
28 | with no effect | R59A;Y61A
29 | disrupting interaction strength | G94D
30 | decreasing interaction strength | R95E
31 | decreasing interaction strength | Y96A
32 | decreasing interaction strength | G392D
33 | disrupting interaction strength | Y96A;T393E
34 | decreasing interaction strength | Q99R
35 | disrupting interaction strength | Y96A;Y394A
